These results are taken from patent US6544548B1, “Keratin-based powders and hydrogel for pharmaceutical applications” (Keraplast Technologies, Ltd., priority 1999, dated 2003).

Common to all, as to format: physicochemical
Data set [1] can be described thus: Loading of acetaminophen into keratin tablets (tablet disintegrated in water, HPLC). The note with it: acetaminophen bound to H2O2-oxidized keratin, 500 mg tablets. The method, then:
Evaluation of the loading of acetaminophen was accomplished by disintegrating a single tablet into a known volume of water over a one week period at room temperature. In addition, that samples were sonicated for 90 minutes prior to sampling. A sample of the solution was withdrawn and analyzed by HPLC.

Data set [2] can be described thus: Dissolution test (USP rotating paddle) of drug-loaded oxidized keratin tablets in simulated gastric fluid. Particulars: 500 mg tablets of drug bound to H2O2-oxidized keratin, 37 C. The method, then:
Dissolution tests are performed according to the standard United States Pharmacopoeia (USP) rotating paddle method. In this method, the volume of the dissolution medium is fixed and agitation is provided under defined conditions by the stainless steel paddle. A 1L volume of purified water or simulated gastric fluid (Lot. No. 76H9312, Sigma-Aldrich, St. Louis, Mo.) was used at 37° C.±0.5° C. The temperature of the dissolution medium was maintained at 37° C. by immersing the dissolution flask in a water bath. A cover was used on the system to avoid water loss through evaporation. […]
During the test, small volumes of sample were withdrawn at various time points, for example, every 20 minutes within the first hour (including a 0 time point) and every hour after that for 8 hours. […] High-performance liquid chromatography (HPLC) was performed on the samples and the amount released from the dosage form calculated based on a calibration curve generated from solutions with known concentrations of the compound of interest.
Tablet samples that incorporated the vasoconstrictor norephedrine were prepared by binding the drug to oxidized keratin in an ion exchange step. […] This was accomplished by dissolving a measured amount of norephedrine into ethanol, adding 5 g of oxidized keratin and heating to reflux for 2 hours, followed by stirring at room temperature for 24 hours. […]

Data set [3] can be described thus: Dissolution test (USP rotating paddle) of albumin from keratin tablets and capsules. On the procedure: Dissolution tests are performed according to the standard United States Pharmacopoeia (USP) rotating paddle method. In this method, the volume of the dissolution medium is fixed and agitation is provided under defined conditions by the stainless steel paddle. A 1L volume of purified water or simulated gastric fluid (Lot. No. 76H9312, Sigma-Aldrich, St. Louis, Mo.) was used at 37° C.±0.5° C. The temperature of the dissolution medium was maintained at 37° C. by immersing the dissolution flask in a water bath. A cover was used on the system to avoid water loss through evaporation. After the temperature equilibrated, the samples were allowed to sink to the bottom of the vessel before rotation of the paddle. Rotation speed was kept constant at 50 rpm.
During the test, small volumes of sample were withdrawn at various time points, for example, every 20 minutes within the first hour (including a 0 time point) and every hour after that for 8 hours. Samples were taken from a precise point in the dissolution flask, halfway between the surface of the dissolution medium and the top of the rotating paddle, and not less than 10 mm from the wall of the vessel. The volume withdrawn during sampling was replaced with an equal volume of media, pre-warmed to 37° C. High-performance liquid chromatography (HPLC) was performed on the samples and the amount released from the dosage form calculated based on a calibration curve generated from solutions with known concentrations of the compound of interest.
Samples containing albumin were made in tablet and capsule forms. Tablets were prepared by co-grinding a mixture of 80/20 dry keratin absorbent powder/bovine albumin. The keratin absorbent powder was prepared as described in Section VI. B supra, and the albumin was purchased from Sigma Chemical Co., St. Louis, Mo. (Lot No. 69H1257, Fraction V, 96% purity). The solid mixture was further homogenized by shaking in a closed container. Samples of 500 mg of the powder mixture were made into tablets using a pellet press at 30,000 psi (400 mg keratin, 100 mg albumin). The dissolution profile of these tablets was measured by the rotating paddle method.
Albumin capsules were prepared by dissolving 2 g of albumin in 200 g of deionized water. The albumin solution was added to 8 g of absorbent keratin powder to form a hydrogel. The hydrogel was thoroughly mixed and poured into petri dishes. The water was removed under vacuum at room temperature. After drying for approximately 36 hours, the resulting solid was ground using a mortar and pestle. 400 mg of the ground keratin/albumin powder (320 mg keratin/80 mg albumin) was placed into each of several two-part gelatin capsules (No. 0, Eli Lilly and Co., Indianapolis, Ind.). The dissolution profile of these tablets was measured using the rotating paddle method.

`CC(=O)Nc1ccc(O)cc1` [acetaminophen, 4-Acetaminophenol]: the “loading level in keratin tablets” value in data set [1] is recorded as “low”. In data set [2], the “time over which bound drug is released” value was 5 h.

As for `CC(N)C(O)c1ccccc1` (centres unmarked) [norephedrine, Phenylpropanolamine], the “time over which bound drug is released” value in data set [2] was 2 h.

Take “albumin: bovine albumin (Sigma, Fraction V, 96% purity) formulated with keratin absorbent powder as tablets or gelatin capsules”: the “release of albumin, water versus gastric fluid, compared with tablets” value in data set [3] (gelatin capsules (320 mg keratin/80 mg albumin, intimately mixed via hydrogel)) is reported as “identical trend”. Moreover, in data set [3] (gelatin capsules, intimately mixed via hydrogel), the “amount of albumin released over an equivalent time period, capsules versus tablets” value is listed as “much less material was released”. For the same compound, the “disintegration and release of albumin” value in data set [3] (keratin tablets (400 mg keratin, 100 mg albumin, mechanically mixed), purified water, 37 C) is “almost immediate and complete”. Further, in data set [3] (keratin tablets, simulated gastric fluid), the “equilibrium amount of albumin released, gastric fluid versus water” value is “significantly lower”. The release of albumin result in data set [3] (keratin tablets, simulated gastric fluid, 37 C) is “immediate”.
